# Patent US12558435B2, “Transient inhibition of p53 in gene therapy” (Ospedale San Raffaele S.R.L., priority 2018, dated 2026)
# Tests used:
# [1] = tested on: p53-target genes (CDKN1A, PHLDA3, RPS27L, APOBEC3H); test: TaqMan expression of p53-target genes in edited CD34+ cells; format: cell-based, human; settings: 24 hrs after electroporation; FIG. 3B
# Text: (§1) For gene expression analyses, total RNA was extracted using the RNeasy Plus Micro Kit (QIAGEN). cDNA was synthetized with SuperScript VILO IV cDNA Synthesis Kit (Invitrogen) and used for Q-PCR in a Viia7 Real-time PCR thermal cycler using TaqMan Gene Expression Assays (Applied Biosystems) mapping to CDKN1A, RPS27L, PHLDA3, APOBEC3H, and HPRT as normalizer. The relative expression of each gene was first normalized to HPRT expression and then represented as fold change relative to the mock-treated sample.
# [2] = tested on: human CD34+ cells; test: Cell growth curve of edited CD34+ cells; format: cell-based
# [3] = tested on: human CD34+ cells; test: Culture (subpopulation) composition of edited CD34+ cells by flow cytometry; format: cell-based
# Experimental: For immunophenotypic analyses (performed on FACSCanto II; BD Pharmingen), we used the antibodies listed below. Single stained and Fluorescence Minus One stained cells were used as controls. LIVE/DEAD Fixable Dead Cell Stain Kit (Thermo Fisher), 7-aminoactinomycin (Sigma Aldrich), were included in the sample preparation for flow cytometry according to the manufacturer's instructions to exclude dead cells from the analysis. Cell sorting was performed using MoFlo XDP Cell Sorter (Beckman Coulter) or FACSAria Fusion (BD Biosciences).
# [4] = tested on: HDR-edited human cells in NSG mice; test: Barcoding-based clonal tracking of edited cells in transplanted NSG mice; format: in vivo; settings: AAVS1; FIG. 12E
# Text: The barcoded AAV6 donor template targeting the AAVS1 locus was obtained by subcloning the degenerated sequence into the previously reported AAVS1 AAV6 transfer vector plasmid downstream of the polyadenylation sequence. Briefly, a ssODN embedding the random sequence flanked by the unique cloning restriction sites (Bsu36l and Sphl) was obtained from Sigma Aldrich. The degenerated region was designed to avoid any undesired cutting by cloning restriction enzymes. To generate the complementary strand, 50 pmol of the ssODN were amplified with 10 cycles of PCR with Easy-A High-Fidelity enzyme (Agilent Technologies) using the appropriate forward and reverse primers according to the manufacturer's instructions. The amplified product was purified with MinElute PCR Purification kit (QIAGEN), digested with the restriction enzymes and checked by capillary electrophoresis. 2 μg of the Bsu36l/Sphl-digested AAVS1 HDR donor template were ligated with the digested insert (molar ratio 1:7) using T4 DNA Ligase (NEB) by scaling up the manufacturer's protocol. […]
# PCR amplicons for each individual sample were generated by one-step PCR using Taq G2 Hot Start Polymerase (Promega). […] PCR library amplicons were separately purified using MinElute PCR Purification kit (QIAGEN) and quality was assessed by Agilent Tapestation (Agilent Technologies). […]
# [5] = tested on: human CD34+ cells; test: Cell cycle analysis by Hoechst 33342 staining; format: cell-based; settings: for cell cycle states (G1 to S/G2/M): bulk treated cells, 12-24 hours, FIG. 14H
# Experimental: Cell cycle was analysed by flow cytometry (CytoFLEX LX; Beckman Coulter) at 12-24 hours post-editing by collecting 0.5-1×10^5 total HSPCs in culture. Cells were washed with PBS+2% FBS and stained by using 10 μg/ml Hoechst 33342 (Sigma-Aldrich) in PBS+2% FBS for 0.5-1 hour in final volume equal to 200 μl.
# [6] = tested on: CDK2; test: TaqMan assay of CDK2 gene expression; format: cell-based, human; settings: 24 hours post-editing; FIG. 16A-B
# [7] = tested on: CDKN2A; test: TaqMan assay of CDKN2A gene expression; format: cell-based, human; settings: 24 hours post-editing; FIG. 16C-D
# [8] = tested on: APOBEC3H; test: TaqMan assay of APOBEC3H gene expression; format: cell-based, human; settings: 24 hours post-editing; FIG. 16G
# Text: as §1
# [9] = tested on: human CD34+ cells transplanted into NSG mice; test: Xenotransplantation of edited human CD34+ cells in NSG mice; format: in vivo; settings: limit cells dose T0eq=1×10^5/mouse; FIG. 19A
# [10] = tested on: human primary T cells; test: Gene editing of human primary T cells; format: cell-based; settings: 20 days after treatment; bulk CD3+, CD4 and CD8 subpopulations; FIG. 9B
# Text: Finally, we tested the delivery of the E4orf6/7 mRNA together with the Cas9 ribonucleoprotein (RNP) into human primary T cells (peripheral blood derived total CD3+ cells) before AAV6 transduction for the delivery of the donor DNA template (FIG. 9A).
Molecule,amplitude of the p53-dependent transcriptional response (downstream target genes) [1],"expansion of treated HSPC ([2]; AAVS1 edited cells, FIG. 3D)","cell growth compared to standard RNP+AAV6 ([2]; days post-editing, FIG. 14B)","relative composition of the hematopoietic populations ([3]; 3 days post editing, vs untreated controls, FIG. 3E)","number of dominant clones in haematopoietic organs, vs standard [4] [fold]","percentage of cells in S/G2/M phases ([5]; 24 hours after gene editing, FIG. 12A)",cell cycle states (G1 to S/G2/M) [5],CDK2 expression [6],CDKN2A expression [7],APOBEC3H expression [8],engraftment of treated cells compared to standard protocol [9],"CD90+ fraction in culture composition ([3]; 96 hours, FIG. 14E)",culture composition ([3]; FIG. 10C),increase in the percentage of GFP+ cells compared to standard [10] [fold]
"GSE56: p53 dominant negative peptide (SEQ ID No. 9), transiently overexpressed from electroporated mRNA (protein, amino acid sequence of GSE56) MDGWCPGRDRRTEEENFRKKEEHCPELPPGSAKRALPTSTSSSPQQKKKPLDGEYFTLKIRGRERFEMFRELNEALELKDARAAEESGDSRAHSSYPKIVS",reduce the amplitude of the p53-dependent transcriptional response,higher expansion,about 2 fold,no change in relative composition,6.5,partially rescued,lower and not significant,remained always at basal level,still remained at basal level,significantly down-regulated,5-6 fold,–,–,–
"E4orf6/7: adenoviral protein from adenovirus serotype 5 E4 gene (SEQ ID No. 2), delivered as mRNA (protein, delivered as mRNA; example amino acid sequence of Ad5-E4orf6/7) MTTSGVPFGMTLRPTRSRLSRRTPYSRDRLPPFETETRATILEDHPLLPECNTLTMHNAWTSPSPPVKQPQVGQQPVAQQLDSDMNLSELPGEFINITDERLARQETVWNITPKNMSVTHDMMLFKASRGERTVYSVCWEGGGRLNTRVL",–,–,–,–,–,–,significant transition from G1 phase to S/G2/M phases,significantly up-regulated,significantly up-regulated,significantly down-regulated,–,significant skewing,without any skew in the culture composition,1.5
